Here are results for two molecules from PMC6123813 (Communications biology, 2018).

Series [1] has as its target m-ephrinA1 (Homo sapiens) (UniProt P20827). Conditions: cited from earlier work.
The target of series [2] is YSA peptide (synthetic construct). Conditions: cited from earlier work.
Series [3] concerns the molecule itself. Put plainly: FRET or BRET; FSI-FRET (two-photon spectral imaging) between EphA2-mTurq and EphA2-eYFP in the plasma membrane of live HEK293T cells in hypo-osmotic medium; no ligand; dimer to monomers, two-dimensional constants in receptors per μm^2.

Sequence of m-ephrinA1 (Homo sapiens) (P20827 19-182): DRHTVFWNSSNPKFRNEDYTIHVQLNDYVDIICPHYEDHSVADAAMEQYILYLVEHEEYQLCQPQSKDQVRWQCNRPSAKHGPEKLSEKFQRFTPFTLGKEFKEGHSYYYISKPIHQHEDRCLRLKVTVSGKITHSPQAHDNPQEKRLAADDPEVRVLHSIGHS

For the molecule EphA2 (from UniProt P29317), the values for the Kd in series [1] and in series [2] were 25 nM and 200 nM, respectively.

B1: EphA2 L223R/L254R/V255R triple mutant, full-length, tagged at the C-terminus with mTurquoise or eYFP (receptor, UniProt P29317 24-976, looked up)
chain: AQGKEVVLLDFAAAGGELGWLTHPYGKGWDLMQNIMNDMPIYMYSVCNVMSGDQDNWLRTNWVYRGEAERIFIELKFTVRDCNSFPGGASSCKETFNLYYAESDLDYGTNFQKRLFTKIDTIAPDEITVSSDFEARHVKLNVEERSVGPLTRKGFYLAFQDIGACVALLSVRVYYKKCPELLQGLAHFPETIAGSDAPSRATVAGTCVDHAVVPPGGEEPRMHCAVDGEWRRPIGQCLCQAGYEKVEDACQACSPGFFKFEASESPCLECPEHTLPSPEGATSCECEEGFFRAPQDPASMPCTRPPSAPHYLTAVGMGAKVELRWTPPQDSGGREDIVYSVTCEQCWPESGECGPCEASVRYSEPPHGLTRTSVTVSDLEPHMNYTFTVEARNGVSGLVTSRSFRTASVSINQTEPPKVRLEGRSTTSLSVSWSIPPPQQSRVWKYEVTYRKKGDSNSYNVRRTEGFSVTLDDLAPDTTYLVQVQALTQEGQGAGSKVHEFQTLSPEGSGNLAVIGGVAVGVVLLLVLAGVGFFIHRRRKNQRARQSPEDVYFSKSEQLKPLKTYVDPHTYEDPNQAVLKFTTEIHPSCVTRQKVIGAGEFGEVYKGMLKTSSGKKEVPVAIKTLKAGYTEKQRVDFLGEAGIMGQFSHHNIIRLEGVISKYKPMMIITEYMENGALDKFLREKDGEFSVLQLVGMLRGIAAGMKYLANMNYVHRDLAARNILVNSNLVCKVSDFGLSRVLEDDPEATYTTSGGKIPIRWTAPEAISYRKFTSASDVWSFGIVMWEVMTYGERPYWELSNHEVMKAINDGFRLPTPMDCPSAIYQLMMQCWQQERARRPKFADIVSILDKLIRAPDSLKTLADFDPRVSIRLPSTSGSEGVPFRTVSEWLESIKMQQYTEHFMAAGYTAIEKVVQMTNDDIKRIGVRLPGHQKRIAYSLLGLKDQVNTVGIPI
As to B1, in series [3], the “stoichiometry N” value was 2.
